What was measured:
[1] = target: soluble human C3b (human) (UniProt P01024); test: cell-based or functional assay
human C4b (human) = human C4b (human) (UniProt P0C0L5); test: cell-based or functional assay
Chain of human C4b (human) (P0C0L5 20-1744): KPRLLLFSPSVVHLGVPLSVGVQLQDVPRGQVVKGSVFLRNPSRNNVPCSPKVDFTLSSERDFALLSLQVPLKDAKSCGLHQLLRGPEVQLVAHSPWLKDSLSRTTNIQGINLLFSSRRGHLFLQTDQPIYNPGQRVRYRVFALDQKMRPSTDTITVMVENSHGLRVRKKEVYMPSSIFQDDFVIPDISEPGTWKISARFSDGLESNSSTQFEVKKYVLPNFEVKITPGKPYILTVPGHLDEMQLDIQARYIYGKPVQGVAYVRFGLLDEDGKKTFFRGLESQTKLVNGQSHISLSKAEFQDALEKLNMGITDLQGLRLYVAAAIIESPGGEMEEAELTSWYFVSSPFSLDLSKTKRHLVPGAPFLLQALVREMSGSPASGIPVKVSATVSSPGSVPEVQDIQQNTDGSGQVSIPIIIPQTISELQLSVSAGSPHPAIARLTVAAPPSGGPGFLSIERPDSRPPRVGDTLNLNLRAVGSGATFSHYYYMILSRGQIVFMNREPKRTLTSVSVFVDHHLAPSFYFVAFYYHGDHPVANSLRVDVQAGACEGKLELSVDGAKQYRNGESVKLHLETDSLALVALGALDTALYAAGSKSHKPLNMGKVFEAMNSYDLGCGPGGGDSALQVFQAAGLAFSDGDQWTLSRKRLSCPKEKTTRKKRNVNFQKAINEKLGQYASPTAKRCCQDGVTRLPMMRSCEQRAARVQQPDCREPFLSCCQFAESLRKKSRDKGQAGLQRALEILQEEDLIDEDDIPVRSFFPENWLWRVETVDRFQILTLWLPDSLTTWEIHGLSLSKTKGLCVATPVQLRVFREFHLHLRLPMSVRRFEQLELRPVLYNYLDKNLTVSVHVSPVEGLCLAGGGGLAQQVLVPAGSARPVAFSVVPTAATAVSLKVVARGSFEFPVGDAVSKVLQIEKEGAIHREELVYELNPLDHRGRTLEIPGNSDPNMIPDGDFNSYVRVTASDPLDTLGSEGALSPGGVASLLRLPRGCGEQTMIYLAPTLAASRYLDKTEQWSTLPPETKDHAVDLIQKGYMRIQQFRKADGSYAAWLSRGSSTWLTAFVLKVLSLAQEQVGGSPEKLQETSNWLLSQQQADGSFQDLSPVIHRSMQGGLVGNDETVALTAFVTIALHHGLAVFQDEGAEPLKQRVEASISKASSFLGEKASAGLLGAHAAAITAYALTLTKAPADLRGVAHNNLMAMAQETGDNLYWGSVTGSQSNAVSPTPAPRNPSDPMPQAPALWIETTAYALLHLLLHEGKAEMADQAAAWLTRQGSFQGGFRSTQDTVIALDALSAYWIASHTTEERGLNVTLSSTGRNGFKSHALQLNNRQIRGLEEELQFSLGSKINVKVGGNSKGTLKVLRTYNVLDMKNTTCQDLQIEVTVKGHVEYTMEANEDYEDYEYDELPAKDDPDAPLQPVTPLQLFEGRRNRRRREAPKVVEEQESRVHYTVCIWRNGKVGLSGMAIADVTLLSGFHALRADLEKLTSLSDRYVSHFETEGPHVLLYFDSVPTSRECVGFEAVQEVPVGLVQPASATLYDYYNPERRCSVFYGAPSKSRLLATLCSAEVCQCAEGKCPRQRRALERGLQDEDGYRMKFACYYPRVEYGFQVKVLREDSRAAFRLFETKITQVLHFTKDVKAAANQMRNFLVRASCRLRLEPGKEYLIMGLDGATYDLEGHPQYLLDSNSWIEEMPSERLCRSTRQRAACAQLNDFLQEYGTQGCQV

Chain of soluble human C3b (human) (P01024 23-1663 limits assumed): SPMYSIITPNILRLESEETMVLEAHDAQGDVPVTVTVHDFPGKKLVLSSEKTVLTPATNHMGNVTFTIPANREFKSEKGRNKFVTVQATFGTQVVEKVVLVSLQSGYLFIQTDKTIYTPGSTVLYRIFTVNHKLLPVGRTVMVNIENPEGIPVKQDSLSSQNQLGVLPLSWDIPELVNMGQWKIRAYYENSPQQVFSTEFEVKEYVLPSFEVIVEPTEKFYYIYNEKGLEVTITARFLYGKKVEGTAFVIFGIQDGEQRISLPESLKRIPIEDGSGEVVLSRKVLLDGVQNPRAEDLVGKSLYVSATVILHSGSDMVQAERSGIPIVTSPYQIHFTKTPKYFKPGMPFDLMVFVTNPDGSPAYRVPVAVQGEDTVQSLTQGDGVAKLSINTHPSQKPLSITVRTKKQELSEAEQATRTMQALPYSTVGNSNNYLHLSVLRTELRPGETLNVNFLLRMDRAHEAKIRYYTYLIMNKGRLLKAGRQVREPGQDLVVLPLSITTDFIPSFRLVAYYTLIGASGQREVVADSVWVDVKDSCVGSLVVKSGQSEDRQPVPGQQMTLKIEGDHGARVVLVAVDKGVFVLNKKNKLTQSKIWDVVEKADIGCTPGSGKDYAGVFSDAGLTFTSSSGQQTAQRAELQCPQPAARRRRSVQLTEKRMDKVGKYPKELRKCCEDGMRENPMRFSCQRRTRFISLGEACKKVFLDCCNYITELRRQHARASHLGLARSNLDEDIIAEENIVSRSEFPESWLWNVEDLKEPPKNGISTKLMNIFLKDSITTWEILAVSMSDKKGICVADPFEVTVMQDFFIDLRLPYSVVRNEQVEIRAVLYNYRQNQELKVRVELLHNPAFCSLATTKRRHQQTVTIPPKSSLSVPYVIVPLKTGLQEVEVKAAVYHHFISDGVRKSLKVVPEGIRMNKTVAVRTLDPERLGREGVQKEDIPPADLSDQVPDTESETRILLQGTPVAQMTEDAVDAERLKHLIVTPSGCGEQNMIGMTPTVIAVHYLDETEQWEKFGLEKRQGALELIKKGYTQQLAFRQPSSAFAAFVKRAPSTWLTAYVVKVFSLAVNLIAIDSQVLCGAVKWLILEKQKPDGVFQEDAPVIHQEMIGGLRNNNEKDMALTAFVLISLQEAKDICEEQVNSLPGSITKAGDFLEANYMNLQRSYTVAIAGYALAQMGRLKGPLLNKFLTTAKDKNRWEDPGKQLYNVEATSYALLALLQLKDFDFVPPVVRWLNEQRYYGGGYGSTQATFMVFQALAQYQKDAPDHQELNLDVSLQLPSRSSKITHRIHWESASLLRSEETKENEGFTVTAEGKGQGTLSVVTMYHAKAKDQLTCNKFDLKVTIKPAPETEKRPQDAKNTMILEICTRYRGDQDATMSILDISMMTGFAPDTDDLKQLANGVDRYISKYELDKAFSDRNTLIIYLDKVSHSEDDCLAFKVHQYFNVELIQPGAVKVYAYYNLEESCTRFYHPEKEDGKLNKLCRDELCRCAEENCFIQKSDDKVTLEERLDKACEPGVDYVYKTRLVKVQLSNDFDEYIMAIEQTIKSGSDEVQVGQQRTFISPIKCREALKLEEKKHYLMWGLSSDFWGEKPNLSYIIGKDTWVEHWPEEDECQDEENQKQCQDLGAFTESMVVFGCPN
Chain of Const. No. 66: HSA-GGSSGG-hCFI-GGSSGG-hCR1; CCP8; CCP9; CCP10-(SEQ ID NO: 33)-hFH; CCP19; CCP20 (P17927 other isoform, or with tags, fused parts or gaps limits assumed): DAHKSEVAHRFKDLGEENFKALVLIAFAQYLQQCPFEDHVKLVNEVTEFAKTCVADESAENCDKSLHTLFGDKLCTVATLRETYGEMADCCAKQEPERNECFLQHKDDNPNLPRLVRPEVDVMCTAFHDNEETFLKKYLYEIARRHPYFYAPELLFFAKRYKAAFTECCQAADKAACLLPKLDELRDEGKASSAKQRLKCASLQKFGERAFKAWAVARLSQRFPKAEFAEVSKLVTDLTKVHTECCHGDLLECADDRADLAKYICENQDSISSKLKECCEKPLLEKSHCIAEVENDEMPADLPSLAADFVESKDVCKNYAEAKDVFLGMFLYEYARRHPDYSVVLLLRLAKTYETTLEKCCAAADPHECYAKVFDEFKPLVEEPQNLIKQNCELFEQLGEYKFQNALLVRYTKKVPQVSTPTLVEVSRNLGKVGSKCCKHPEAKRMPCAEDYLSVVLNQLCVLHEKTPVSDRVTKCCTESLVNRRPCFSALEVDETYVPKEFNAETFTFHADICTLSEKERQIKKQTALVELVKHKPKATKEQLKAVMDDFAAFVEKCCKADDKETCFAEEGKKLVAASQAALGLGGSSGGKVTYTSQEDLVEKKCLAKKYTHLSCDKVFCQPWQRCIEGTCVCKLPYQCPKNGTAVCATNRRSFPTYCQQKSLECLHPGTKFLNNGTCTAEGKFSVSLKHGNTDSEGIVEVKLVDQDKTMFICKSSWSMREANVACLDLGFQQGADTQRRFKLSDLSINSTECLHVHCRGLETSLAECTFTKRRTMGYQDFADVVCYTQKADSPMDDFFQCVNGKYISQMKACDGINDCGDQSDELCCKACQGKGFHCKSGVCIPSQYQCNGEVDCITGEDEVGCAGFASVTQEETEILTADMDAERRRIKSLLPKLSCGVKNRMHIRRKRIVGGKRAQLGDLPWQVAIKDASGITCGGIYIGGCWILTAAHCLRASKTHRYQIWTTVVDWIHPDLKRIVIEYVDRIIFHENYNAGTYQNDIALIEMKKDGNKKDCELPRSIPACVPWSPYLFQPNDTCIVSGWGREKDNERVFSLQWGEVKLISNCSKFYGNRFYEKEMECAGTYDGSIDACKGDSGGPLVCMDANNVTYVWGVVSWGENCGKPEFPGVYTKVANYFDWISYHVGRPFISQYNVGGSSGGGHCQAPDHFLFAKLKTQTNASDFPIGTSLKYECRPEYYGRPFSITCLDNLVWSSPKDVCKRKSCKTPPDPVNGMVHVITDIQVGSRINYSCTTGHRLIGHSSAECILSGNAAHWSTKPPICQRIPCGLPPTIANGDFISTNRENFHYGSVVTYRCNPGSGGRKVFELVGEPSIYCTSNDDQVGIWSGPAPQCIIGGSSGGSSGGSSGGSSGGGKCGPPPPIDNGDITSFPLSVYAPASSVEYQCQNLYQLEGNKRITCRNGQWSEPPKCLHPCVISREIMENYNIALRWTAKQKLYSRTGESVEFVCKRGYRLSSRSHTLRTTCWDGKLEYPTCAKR

iC3b EC50 [1] [nM] | Substance | further results
28.6 | Const. No. 2: HSA-GGSSGG-hCFI; F559H (enzyme) | 
18.9 | Const. No. 3: HSA-GGSSGG-hCFI; L307F (enzyme) | 
21.4 | Const. No. 4: HSA-GGSSGG-hCFI; L307H (enzyme) | 
24.8 | Const. No. 5: HSA-GGSSGG-hCFI; L307W (enzyme) | 
34.7 | Const. No. 6: HSA-GGSSGG-hCFI; L307Y (enzyme) | 
15.8 | Const. No. 7: HSA-GGSSGG-hCFI; P433A (enzyme) | 
40.9 | Const. No. 14: HSA-GGSSGG-hCFI; S499A (enzyme) | 
35.1 | Const. No. 15: HSA-GGSSGG-hCFI; S499K (enzyme) | 
85.6 | Const. No. 16: HSA-GGSSGG-hCFI; S499V (enzyme) | 
30.5 | Const. No. 21: HSA-GGSSGG-hCFI; K423R (enzyme) | 
102 | Const. No. 22: HSA-GGSSGG-hCFI; R62A (enzyme) | 
156 | Const. No. 23: HSA-GGSSGG-hCFI; R62E (enzyme) | 
6.39 | Const. No. 26: HSA-GGSSGG-hCFI; E401K (enzyme) | 
6.26 | Const. No. 27: HSA-GGSSGG-hCFI; E401R (enzyme) | 
11.8 | Const. No. 28: HSA-GGSSGG-hCFI; E401A (enzyme) | 
10.6 | Const. No. 29: HSA-GGSSGG-hCFI; E401F (enzyme) | 
16.4 | Const. No. 33: HSA-GGSSGG-hCFI; H554F (enzyme) | 
8.7 | Const. No. 34: HSA-GGSSGG-hCFI; H554K (enzyme) | 
347 | Const. No. 35: HSA-GGSSGG-hCFI; R371E (enzyme) | 
13.1 | Const. No. 36: HSA-GGSSGG-hCFI; A342R (enzyme) | 
20.3 | Const. No. 37: HSA-GGSSGG-hCFI; K51R; N52A; A55P; T59M; R61G; F64Y (enzyme) | 
39.8 | Const. No. 38: HSA-GGSSGG-hCFI; N52A (enzyme) | 
31.4 | Const. No. 39: HSA-GGSSGG-hCFI; A55P (enzyme) | 
43.1 | Const. No. 40: HSA-GGSSGG-hCFI; T59E (enzyme) | 
31.4 | Const. No. 41: HSA-GGSSGG-hCFI; L73F (enzyme) | 

iC3b EC50 [1] [nM] | Substance | further results
168 | Const. No. 42: HSA-GGSSGG-hCFI; L73D (enzyme) | 
61.1 | Const. No. 45: HSA-GGSSGG-hCFI; R484A (enzyme) | 
154 | Const. No. 47: HSA-GGSSGG-hCFI; R484E (enzyme) | 
1000 | Const. No. 48: HSA-GGSSGG-hCFI; Δ(V565) > VG (enzyme) | 
89.2 | Const. No. 49: HSA-GGSSGG-hCFI; Δ(V565) > VY (enzyme) | 
12.8 | Const. No. 50: HSA-GGSSGG-hCFI; E416K (enzyme) | 
12.5 | Const. No. 51: HSA-GGSSGG-hCFI; E416R (enzyme) | 
22.5 | Const. No. 52: HSA-GGSSGG-hCFI; D395A (enzyme) | 
20.7 | Const. No. 53: HSA-GGSSGG-hCFI; D395G (enzyme) | 
7.38 | Const. No. 54: HSA-GGSSGG-hCFI; D395K (enzyme) | 
12.4 | Const. No. 55: HSA-GGSSGG-hCFI; D395R (enzyme) | 
9.67 | Const. No. 56: HSA-GGSSGG-hCFI; D395A; D425A (enzyme) | 
17.5 | Const. No. 57: HSA-GGSSGG-hCFI; D395A; E416A (enzyme) | 
8.15 | Const. No. 58: HSA-GGSSGG-hCFI; D395A; E416A; D425A (enzyme) | 
24.9 | Const. No. 59: HSA-GGSSGG-hCFI; N402D (enzyme) | 
156 | Const. No. 60: HSA-GGSSGG-hCFI; K368D (enzyme) | 
3.17 | Const. No. 66: HSA-GGSSGG-hCFI-GGSSGG-hCR1; CCP8; CCP9; CCP10-(SEQ ID NO: 33)-hFH; CCP19; CCP20 (from UniProt P17927 491-684; P08603 1107-1231) (enzyme) | iC3b no cofactor EC50 [1]: 2.92 nM; iC3b with cofactor EC50 [1]: 3.2 nM
17.5 | Const. No. 70: HSA-…-Rat CFI (from UniProt Q9WUW3 19-604) (enzyme) | 
32.7 | Const. No. 71: HSA-…-Gorilla CFI (enzyme) | C4c EC50 (human C4b (human)): 679 nM
3.12 | Const. No. 72: HSA-…-Cyno CFI (from UniProt A0A650AXN4 19-583) (enzyme) | 
54.6 | Const. No. 73: HSA-…-Chimp CFI (enzyme) | C4c EC50 (human C4b (human)): 1610 nM
5.79 | Const. No. 74: HSA-…-Bovine CFI (enzyme) | C4c EC50 (human C4b (human)): 47.1 nM
6.69 | Const. No. 91: HSA-GGSSGG-hCFI; T377A; E457G; N531G (enzyme) | 
46.3 | Const. No. 92: HSA-GGSSGG-hCFI; N422A (enzyme) | 
28.6 | Const. No. 95: HSA linked with CFI (CFI-HSA), wild type (enzyme) | 
